Assay results from article PMC9044407 (Protein Science : A Publication of the Protein Society, 2022).
Like-named read-outs stand apart in the source and are kept apart here.

Key:
[1] = biological target: T1, Suv3 (human, UniProt Q8IYB8 48-786); assay: fluorescence polarization
T1 sequence: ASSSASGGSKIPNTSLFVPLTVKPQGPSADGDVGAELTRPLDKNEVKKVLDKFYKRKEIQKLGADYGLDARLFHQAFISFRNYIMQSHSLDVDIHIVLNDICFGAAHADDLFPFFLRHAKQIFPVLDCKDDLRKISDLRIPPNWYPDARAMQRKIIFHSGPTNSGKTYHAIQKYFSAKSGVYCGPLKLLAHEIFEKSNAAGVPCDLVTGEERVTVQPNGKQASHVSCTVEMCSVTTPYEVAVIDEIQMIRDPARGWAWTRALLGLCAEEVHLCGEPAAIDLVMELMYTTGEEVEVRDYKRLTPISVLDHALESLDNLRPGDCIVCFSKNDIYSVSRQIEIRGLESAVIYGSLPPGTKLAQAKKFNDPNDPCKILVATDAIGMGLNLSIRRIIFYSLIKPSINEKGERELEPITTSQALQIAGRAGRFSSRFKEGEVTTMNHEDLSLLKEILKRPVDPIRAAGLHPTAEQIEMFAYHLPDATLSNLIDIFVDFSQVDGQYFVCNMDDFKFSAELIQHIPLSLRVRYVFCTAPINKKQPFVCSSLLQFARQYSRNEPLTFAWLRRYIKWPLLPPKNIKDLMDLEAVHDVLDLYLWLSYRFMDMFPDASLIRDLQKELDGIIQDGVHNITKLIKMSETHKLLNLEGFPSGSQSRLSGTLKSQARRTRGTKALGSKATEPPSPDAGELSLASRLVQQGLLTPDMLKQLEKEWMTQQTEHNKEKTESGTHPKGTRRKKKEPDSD

[2] = biological target: T1, Suv3; assay: fluorescence polarization; remark: listed apart in the source
[3] = biological target: T1, Suv3; assay: fluorescence polarization; remark: listed apart in the source
[4] = biological target: the molecule itself
[5] = biological target: T2, human Suv3 (residues 48–786), N-terminal His-tagged (human, UniProt Q8IYB8 48-786); assay: SEC
T2 sequence (looked up): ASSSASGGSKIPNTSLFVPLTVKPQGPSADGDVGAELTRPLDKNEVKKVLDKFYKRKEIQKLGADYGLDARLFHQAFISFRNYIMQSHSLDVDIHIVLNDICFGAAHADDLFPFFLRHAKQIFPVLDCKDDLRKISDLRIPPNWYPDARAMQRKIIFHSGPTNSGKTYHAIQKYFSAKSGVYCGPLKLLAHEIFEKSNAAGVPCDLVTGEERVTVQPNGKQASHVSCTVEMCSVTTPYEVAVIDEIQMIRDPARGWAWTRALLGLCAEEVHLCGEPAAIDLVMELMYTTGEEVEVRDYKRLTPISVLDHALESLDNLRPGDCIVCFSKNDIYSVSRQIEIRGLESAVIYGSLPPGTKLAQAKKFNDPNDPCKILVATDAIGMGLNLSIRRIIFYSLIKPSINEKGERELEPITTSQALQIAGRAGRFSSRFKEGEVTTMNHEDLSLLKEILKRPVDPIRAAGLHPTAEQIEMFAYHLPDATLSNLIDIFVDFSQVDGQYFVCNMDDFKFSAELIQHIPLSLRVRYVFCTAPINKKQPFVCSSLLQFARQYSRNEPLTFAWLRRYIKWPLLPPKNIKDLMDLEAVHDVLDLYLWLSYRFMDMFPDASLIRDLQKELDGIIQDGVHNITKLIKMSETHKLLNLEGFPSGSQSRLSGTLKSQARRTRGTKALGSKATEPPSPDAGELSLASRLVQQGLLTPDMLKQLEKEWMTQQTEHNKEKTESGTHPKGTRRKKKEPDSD

[6] = biological target: T3, Suv3ΔC (human, UniProt Q8IYB8 48-722, del723-786); assay: fluorescence polarization
T3 sequence: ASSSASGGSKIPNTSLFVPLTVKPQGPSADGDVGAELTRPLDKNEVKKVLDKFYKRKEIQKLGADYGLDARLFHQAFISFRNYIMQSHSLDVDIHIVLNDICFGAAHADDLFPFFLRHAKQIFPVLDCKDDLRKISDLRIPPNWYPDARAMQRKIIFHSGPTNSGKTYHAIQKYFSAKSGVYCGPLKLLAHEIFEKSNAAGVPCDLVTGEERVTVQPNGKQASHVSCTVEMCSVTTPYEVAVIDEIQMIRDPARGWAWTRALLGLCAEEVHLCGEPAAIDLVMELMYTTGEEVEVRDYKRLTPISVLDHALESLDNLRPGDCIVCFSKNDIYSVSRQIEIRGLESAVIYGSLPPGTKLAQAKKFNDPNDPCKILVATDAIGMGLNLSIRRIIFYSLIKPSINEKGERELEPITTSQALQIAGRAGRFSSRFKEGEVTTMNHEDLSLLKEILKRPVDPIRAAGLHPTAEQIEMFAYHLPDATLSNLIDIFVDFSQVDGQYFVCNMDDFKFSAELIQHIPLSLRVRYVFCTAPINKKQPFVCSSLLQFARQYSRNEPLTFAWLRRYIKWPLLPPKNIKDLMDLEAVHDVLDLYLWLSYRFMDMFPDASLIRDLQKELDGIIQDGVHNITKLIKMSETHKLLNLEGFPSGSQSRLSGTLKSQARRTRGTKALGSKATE

[7] = biological target: T1, Suv3; assay: fluorescence polarization; remark: listed apart in the source
[8] = biological target: T1, Suv3; assay: fluorescence polarization; remark: listed apart in the source
[9] = biological target: T1, Suv3; assay: fluorescence polarization; remark: listed apart in the source

B1: dsDNA 10-nt 5' overhang (dsDNA)
DNA 1: GGTGTGGTGGCATACGTGCAGACGC
DNA 2: GAGGAGAGGAGCGTCTGCACGTATGCCACCACACC
- binding signal [1]: 8 fold lower affinity than 3' overhang dsDNA

B2: dsRNA 10-nt 5' overhang (dsRNA)
RNA 1: GGUGUGGUGGCAUACGUGCAGACGC
RNA 2: GAGGAGAGGAGCGUCUGCACGUAUGCCACCACACC
- binding result [2]: no binding

B3: DNA-RNA hybrid 10-nt 5' overhang (DNA:RNA)
DNA: GGTGTGGTGGCATACGTGCAGACGC
RNA: GAGGAGAGGAGCGUCUGCACGUAUGCCACCACACC
- binding signal [1]: 23 fold lower affinity than 3' overhang DNA-RNA hybrid

B4: ssRNA 25 nt (ssRNA)
RNA: GGUGUGGUGGCAUACGUGCAGACGC
- Kd [3]: 53.1 ± 0.7 nM

B5: ssDNA 25 nt (ssDNA)
DNA: GGTGTGGTGGCATACGTGCAGACGC
- Kd [3]: 44 ± 1.7 nM

B6: dsRNA 20-nt 3' overhang (dsRNA)
RNA 1: GGUGUGGUGGCAUACGUGCAGACGC
RNA 2: GCGUCUGCACGUAUGCCACCACACCAGGAGAGGAGAGGAGAGGAG
- Kd [3]: ~18 nM

B7: blunt-end dsRNA (dsRNA)
RNA 1: GGUGUGGUGGCAUACGUGCAGACGC
RNA 2: GCGUCUGCACGUAUGCCACCACACC
- binding result [2]: no binding

B8: human PNPase (residues 46–783), C-terminal His-tagged (enzyme, UniProt Q8TCS8 46-783, looked up)
chain: AVAVDLGNRKLEISSGKLARFADGSAVVQSGDTAVMVTAVSKTKPSPSQFMPLVVDYRQKAAAAGRIPTNYLRREIGTSDKEILTSRIIDRSIRPLFPAGYFYDTQVLCNLLAVDGVNEPDVLAINGASVALSLSDIPWNGPVGAVRIGIIDGEYVVNPTRKEMSSSTLNLVVAGAPKSQIVMLEASAENILQQDFCHAIKVGVKYTQQIIQGIQQLVKETGVTKRTPQKLFTPSPEIVKYTHKLAMERLYAVFTDYEHDKVSRDEAVNKIRLDTEEQLKEKFPEADPYEIIESFNVVAKEVFRSIVLNEYKRCDGRDLTSLRNVSCEVDMFKTLHGSALFQRGQTQVLCTVTFDSLESGIKSDQVITAINGIKDKNFMLHYEFPPYATNEIGKVTGLNRRELGHGALAEKALYPVIPRDFPFTIRVTSEVLESNGSSSMASACGGSLALMDSGVPISSAVAGVAIGLVTKTDPEKGEIEDYRLLTDILGIEDYNGDMDFKIAGTNKGITALQADIKLPGIPIKIVMEAIQQASVAKKEILQIMNKTISKPRASRKENGPVVETVQVPLSKRAKFVGPGGYNLKKLQAETGVTISQVDEETFSVFAPTPSAMHEARDFITEICKDDQEQQLEFGAVYTATITEIRDTGVMVKLYPNMTAVLLHNTQLDQRKIKHPTALGLEVGQEIQVKYFGRDPADGRMRLSRKVLQSPATTVVRTLNDRSSIVMGEPISQSSSNSQ
- stoichiometry N [4]: 3
- binding result [5]: binds

B9: dsRNA 15-nt 3' overhang (dsRNA)
RNA 1: GGUGUGGUGGCAUACGUGCAGACGC
RNA 2: GCGUCUGCACGUAUGCCACCACACCAGGAGAGGAGAGGAG
- Kd [3]: ~18 nM

B10: blunt-end DNA-RNA hybrid (DNA:RNA)
DNA: GGTGTGGTGGCATACGTGCAGACGC
RNA: GCGUCUGCACGUAUGCCACCACACC
- Kd [3]: 103 ± 5.9 nM

B11: dsRNA 5-nt 3' overhang (dsRNA)
RNA 1: GGUGUGGUGGCAUACGUGCAGACGC
RNA 2: GCGUCUGCACGUAUGCCACCACACCAGGAG
- Kd [3]: ~65 nM

B12: blunt-end dsDNA (dsDNA)
DNA 1: GGTGTGGTGGCATACGTGCAGACGC
DNA 2: GCGTCTGCACGTATGCCACCACACC
- Kd [3]: 63.9 ± 1.5 nM

B13: dsDNA 10-nt 3' overhang (dsDNA)
DNA 1: GGTGTGGTGGCATACGTGCAGACGC
DNA 2: GCGTCTGCACGTATGCCACCACACCAGGAGAGGAG
- Kd [3]: 11.5 ± 0.2 nM
- Kd [6]: 99 ± 8.6 nM

B14: DNA-RNA hybrid 10-nt 3' overhang (DNA:RNA)
DNA: GGTGTGGTGGCATACGTGCAGACGC
RNA: GCGUCUGCACGUAUGCCACCACACCAGGAGAGGAG
- Kd [3]: 13.1 ± 0.4 nM
- Kd [6]: 110 ± 9.5 nM

B15: dsRNA 10-nt 3' overhang (dsRNA)
RNA 1: GGUGUGGUGGCAUACGUGCAGACGC
RNA 2: GCGUCUGCACGUAUGCCACCACACCAGGAGAGGAG
- Kd [7]: 62.2 ± 2.2 nM
- Kd [8]: 32.6 ± 0.6 nM
- Kd [3]: 18.7 ± 0.7 nM
- Kd [9]: 19.3 ± 0.5 nM
